Measured values published in the DeepSol protein solubility set.

Test: soluble on expression in E. coli; label from the status in PepcDB or PDB records

Sequence	soluble on expression in E. coli
MRLTEEEVQALLEKADGWKLADERWIVKKYRFQDYLQGIEFVRRIAAISENANHHPFISIDYKLITVKLSSWRAKGLTKLDFDLAKQYDEVYNQMKQGEGE	soluble
EPDLDDWFENDREDLRHFVGIYVLAHYRNRPSDVALLADAPHHEARVLRLKNGKIVTAIQIAKEGGIPKAVIDKMAKGYKPPGNIIPDMMVKHHYAKEFARLKGYRVVRIATHPDAMDMGLGSKALELLIKEAEEKGLDWVGSGFGASPELIRFWVRNGFAVVHLSPTRNPVSGEYTAIVIKP	not soluble
MGSDKIHHHHHHMSEISAIWERIEAWHAANDQTENLNPGATAEALAQAEKDMGLTFPPEMRESLLRHDGSVDDSWPTGELLSLERMADERKVWMDLLQDGTFDGNASHNESSEALQPGWWNPAWIPLDADGGGNGAVIDLAPGPQGTVGQVIDMDHEVGPSGPKYVSLAAYLEAMLERLSEAEE	not soluble
MTTSIQRRISIVIPCLNDAVLLEQCLSSIVAQTLQPEEVIVVDNGSTDNSVEVANRMGARVVHEPLQGITWASAAGYNSARGDLIVRFDADCVIPPDHLSQVNAIWNRTEETPGRTIVALTGTGSFDIPGRMGEWLALCYLGAYRWSTKQALGHYPIFGSNSVISRQWWEDVKDQITLSETFVHEDMYFSFFVRPHETVWFEKNLKLIMHPRALMGVRQSFIRLVRGFYTIKIAWKREPVHQRLESRRDWTLEHHHHHH	not soluble
MAHHHHHHMEAKAQAYLEKLSNSLQAAGRTATADVLKRAKEEFERSLWCEMTDDLLLAVRDPLVLESAYELHENVLKVTRMDMSPTAYVKLLHYICFCPNSTLQKALDLLNGAVVALSTSSEQGENMANCIRALLLLDSYNDKSSPAGTAASEASRILDKVESFIHSKQMHEVEPVLAALHCQARGKDYEIRQQYTKYYSNAFETVKSAERAEMPIIESDLLSLAYKAALSALLSEEIYNFGKFLNERHFTERLADSVQHAWILEWLRLCNDGKVEEFEQYAVAHKAEMAASPILSEFFPSITKKVRLMALLHLVFYTPFNERTFTFDVIARRCAVDEERVEPLLLAALAQGIIMGKIDGLTQEVHITWVEPRVLSLQEVKELAVHVSRWKEKTLGLMQCMKEAAQETHN	soluble
MNELLAEMAAVSSRRKQSKPRRMSGEGDAMMSPIDLSTKSFDENNCEKGAGGALPLEDRSNILPHFSVPFANPQQFLSLCAQLGNSSSRNVSSTASTTSSCPIQSCSQSFSSPAALTWHVLDAHEDEQEIFSCDVCTTTFSNGQDIREHKCQKTLASRSTSVPPSTIPSSVCFLSTPTTPCLQFSINESIGTSEIREEDEEEDMDVEDGEHVANQLFGHLLQKSDDKSKMASLFNHAFPPFAAFPNMPPPFLMRQPFDPRADVFAAGRHDNDDDWEALMEISTSDEAEKIRALVGDKAVPTTDPNQCILCRRVLSCKSALQMHYRTHTGERPFKCKICQRAFTTKGNLKTHMGVHRSKHSFRGLPISLPPQLAAMHQHQHQIAPPQRIHIHNPPTSAASAAAAVAQIQASQQCPICQQRFLNAGELAVHITEHRNSLTQPPRVMPTPTTTRVQTFPFVPFFTTPPSLNATDMSTQFNLANILSAQLKNDSSPNTDTSSVEEKITRDDPPKMASLSPSNSSDSSSSVRQDILESSEFEEKLKKLEEPPILEQQVSTTPNPKNENPLLAMQKMWAETEPPPPRQMPVLSKHQCGVCFKHFSSSSALQIHMRTHTGDKPFKCDMCGRAFTTRGNLKVHMGTHSWQQSPSRRGRRIFDVASSVTEKPMLQSPILPTSGAPGASPLAMLGPNGLSGLEMMMMLWRTVCSVCQKVCQSPNELEQHLKEHLNNGSSAAPTPLASAATPPPS	not soluble
GNDEIGELALAFNNLSKRVQEAQANTESEKRRLDSVITHMSDGIIATDRRGRIRIVNDMALKMLGMAKEDIIGYYMLSVLSLEDEFKLEEIQENNDSFLLDLNEEEGLIARVNFSTIVQETGFVTGYIAVLHD	not soluble
MSLSLTPLSEKLRPNNLDTFIGQNHLLERLQYIISAPRLPSMLFFGPPGCGKSTLALLLAYKKSTNILRISAPETGIQQLRQKLTDIDILILDEIHRFSKAQQDFFLPLLESGKLTMLATTTENPSFSVTKQLLSRLNVLQLRQLGYNELKELVKKGTLFLNILLPDDVINFLATTAHGDARTLFNLIEYISILPEEKRVLEYIKINLPEILERHDKDGDSHYEYASALIKSIRGSNPDAALYYLACLLEGGEDPRFICRRLIISASEDIGLADPQALSLAVSCQQAVEFVGMPEGFIPLSETVVYLALARKSNSTYAAYSNAAREVRLHGAQPVPLHLRNPSTQLQKQWGYGREYKYPHNYPNAWVEQEYFPSTISNRSFYYPKEQGEEPKLNMWHNHIKKKYSEGHHHHHH	not soluble
MADQEHIDAGLLSTNFDMIQALPLNVKQRVCALKNLQMKTIQIESDFYKRVHELEIEFEGKFKSTFDQRKAIVAGEVEPTKEQIDTPILEGLEGDQLAELYKAAEADPSAKGIKDFWLTALRTHDLVAEAIEEHDVPILSYLTDVTTAASKDPAGFKIEFHFATNPYFKNQVLTKTYLLGFDPDAEAPLQFDGPHVIRAVGDTIEWEDGKNVTKKAVKKKQKKGANAGKFLTKTVKADSFFNFFEPPKSKDERNEDEDDEQAEEFLELDYEMGQAIRDTIIPRAVLFYTGELQSDDMFDFPGEDGDDVSDFSDDEA	soluble
MDMDEKDVVETEEESFAELFEKSNSETQRLRPGSKVEGKILKIGAEWVFIDIGKKGEGVMERKELQDAEGNLTVAEGDTITAWFTGSVRNEMRFTTKLGAGAAANAQLEEAHRSGIPVEGFVVKEIKGGFEVRLSGTTRAFCPFSQISLRRAENPAEFVGKHLLFKVTEYSERGRNIVLSHRQILEEEQRVKREALKEVLLEGMTVTGTVTRLADFGAFVDLGGVDGLIPVSEVGWTRVKHVRDVLSVGEQVSVVIKKIDWEAGKISLSLKDTLADPWTTVAEQFPEGSYHTGTVARLAAFGAFVTLAPGIDGLIHISKLGKGKRINHPSDVLKEGETVEVKVDGVDREARRLSLALAEVSRAAEEEEKSVASFRQQATSSSKESMGSFGDLLKAKIEEKRLEHHHHHH	not soluble
MEKKHIYLFCSAGMSTSLLVSKMRAQAEKYEVPVIIEAFPETLAGEKGQNADVVLLGPQIAYMLPEIQRLLPNKPVEVIDSLLYGKVDGLGVLKAAVAAIKKAAAN	soluble
MASANSVIEGDLFKQKGASTFFNEGDINSSEGTIKHIYGLIIGTSNVSSSGTFATVNLTAGNKTGMTEFSLSNVLISDINSKSVPYTVTNATVLIDTAPVIDPICCPKSVDEKSKLAFKISAKDADGDRLTLSASGLPEGASFNRTSGAFAWTPAVGQTGVYTIAFKVSDGYLTDSENVTVTVNKLNNPPVIDFFEPINGSSFSEGERIGISVNATDAEKQALNYSIKIDGVMYSSDPAYIWETDYSSSGNHTIEVSVSDGIDEAKMQHSIYISECHPRYDVNEDGVVNILDITNVSREYETTVSKPYPRYDTNQDGEINILDLTLVGHHFGEKVELEHHHHHH	not soluble
MDAELLEIYNFLAKYPPFNELPEETLTKVTESVEISYYRQDTPIIHFGDHIQDLFVVRSGVVEVYRRKGELYNRLDEGDLFGQMGLLTNNKVRFPVKAIEDTLLYCIPVEVFQEIYDNFDSFADFVEVENSARLRQTISENKDANDLTTSKVKTLLTGDAPTINRGQTIQQAAQLMAQDNISSLLIVDPDFVLDEDDPQSPVLGIITDRDLCTRVLAEGLSPQDDVSTVMTTEVISLDHNAYIYEAMLTMLRYNVHHLPVVKNQLPIGIIETTDIVRYESQNSLLLVSSIFQQQSIEDLATVAEEVKSSFVRLVNEDANSHMVGSAMSVIGRSFKQRLLELAEEELGAPPIPYCFLALGSMGRDEQLLVTDQDNAIILDESYQEEKHGKYFEDLAKFVSDGLDACGYKYCTGDIMATNPMWRMTRSEWEECFADWIDDPNPKALLNASIFFDLDGVYGRLKWAEQLTSFIVRRARKNNRFLACLARNALNRTPPLGFFKDFVMEKDGQHKNSINLKRRGTAPLVDLIRVHALAVGSRAQNSFERLDDIIDAGILPKGRAQDLKDALEFISMVRIRHQATDVELGIEPDNNIEPENLSDFERRNLKDAFQILSNGQNFLKFRYQANKSFK	not soluble
MAHHHHHHMPSAPTCQHGSYHQCECYGHNTQLPNYRHDISNPRTLQGYYAPNGGCPCPATCGAEKHGLYCSDRGADASAMPKLTFRAADGPHTVHSASDVDGNGRDPATSIRTAFPNSRNYGGTVAQRGPTTLSTRAQLSASRKARAEAKREERAQDRKNFLRGVLRDEMLARMDAEGKRAALEADTGLMGTHHGEEYEANQRAAGSMRGGLDSTSRDPDTVLTLGEQYREIMDELEYVADQPVGSKYNIIRLHYLVEEEDRLNRLRLQERIRKTAEAMQSKK	not soluble
MSLDFVIEMLGIRKEFSGFVANDNITLQLKQGEIHALLGENGAGKSTLMNVLFGLYEPDGGEIRVRGTKENINSPNKANELGIGMVHQHFMLVDKFTVAENIILGKEPSKLGVIEKKKAIEEIKEISDRYGLRVDPNAVVRDISIGMQQRVEILKTLYRGADILIFDEPTAVLTPQEIKELIQIMRSLIKEGKSIILITHKLKEIMDVCDRVTVIRRGKGMGTVNVPETTPQDLANLMVGREVVFTTEKIDAKPGKDVLEVKDLVVKESRGVESVRGLNLTVRAGEIVGIAGVDGNGQSELISAIAGLSKVTSGSILLNGEHIENKKPRKITEAGLGHIPEDRHKHGLVLEMSLGENIALQTYYKKPISSKGFLNHKAMYDFARELIEEYDVRASSEYVAAKSLSGGNQQKAIIAREIHRNPDFLIAAQPTRGLDVGAIEFIHRRLIEQRDNGKAVLLMSFELDEIMNVSDRIAVIYEGKIVAIVDPKETTEQELGLMMAGSSKQEAEMGEKEGHHHHHH	not soluble
MAHHHHHHMPRSEKQSEEDDWELHPLFLSKIPNKKDINKNQALSALITLINEEEEKEVFSYEPRRKNLKKKITEKGQIIYKKDRRNFYEPYQQNKNDKINYFEKKTLGGHSDVSKEEEVMDVEVDEEGTPLTAAQQGGDHSGQNVSSSQQATDETSIGEVLVCLSMINLK	not soluble
MGSDKIHHHHHHMMFEFNFARAMASLREEYAKDAKINIQHVWQNETAAVIAKALATEVSFDNAMFVENKPMRISDQQIRQLPVEAQKDLQQKILQNAANGIGFLYGSHLVGGLDGKPSPELLTSLHRFINSPDMFKFIQSITGIEGICYASLQASRYIQGNFLTRHNDVVESEGRKVAFVFGFTPEWHPDWGGLLQFYTPKGVLTDTWVPTFNNLALFDVHHPHSVSFVAPFAKRPRFSVTGWFRTIAPSK	not soluble
MLLHLPNGDVLCVWFGGTQEGIADISIYMSRLVKDSGSWSKAAKLSEDATRSEQNPVLFLAPDNVLWLLYTAQKSGNQDTAIVRYRQSTDLGATWGEIGTLLDQPGTFIRQPITVLENGDWLLPVFYCRVQPGEKWVGNDDDSAVKISSDQGKTWREYPVPNSTGCVHMNITPLQDGTLLALYRSRWADFIYQSRSTDGGKTWSEPVATDLPNNNSSIQVTTLKNGHLALVFNHMSAADATDRRLSLYDELEHHHHHH	soluble
MQRYKLPVSVLVVIYTADLQVLLLERADHPGYWQSVTGSQDPGETLLQTAVREVREETGLNTDDYVLSDWQIQNRYEIFEEWNWRYPPGTTHNTEHVFGLELPKTIPAVVSSREHLGYVWLPWREAAEKVFSSSNACAIRMLASKRKSENSR	not soluble
MGSDKIHHHHHHMTKNKLNQNSYELEKVKERIEQILSQFFPEQIMKDLPLYGKMLRVRLSILSFKNRGVEIGEDAISSLAALELVHLASLLHDDVIDGARFRRGKETINFMYGDKAAVAAGDLVLVSAFHTVEEIGNNKLRRAFLNVIGKMSEAELIEQLSRYKPITKEEYLRIVEGKSGALFGLALQLPALLEGELGEDLYNLGVTIGTIYQMFDDIMDFAGMEKIGKDGFLDLKNGVASFPLVTAMEKFPEARQMFENRDWSGLMSFMREKGILKECEETLKVLVKNVIIENSWLRDFVDGIFKIKISS	not soluble
